# According to PMC5118228 (EJNMMI Research, 2016):
# Assay: in vivo
# Details: male, athymic nu/nu, mouse, iv, total radioactivity
# [1] = 0.03 nmol, uptake in Red blood cell
# [2] = 0.1 nmol, uptake in Red blood cell
smiles,measurement,setting,value
"C[C@@H](O)[C@H](NC(=O)[C@@H]1CSSC[C@H](NC(=O)[C@@H](Cc2ccccc2)NC(=O)CN2CCN(CC(=O)O)CCN(CC(=O)O)CCN(CC(=O)O)CC2)C(=O)N[C@@H](Cc2ccc(O)cc2)C(=O)N[C@H](Cc2c[nH]c3ccccc23)C(=O)N[C@@H](CCCCN)C(=O)N[C@@H]([C@@H](C)O)C(=O)N1)C(=O)O [^111In-DOTATATE, metal not drawn]",tissue uptake at 10 min,"0.03 nmol, uptake in Adrenals",3.4 ± 2.3 %ID/g
same,tissue uptake at 0.5 h,"0.03 nmol, uptake in Adrenals",4.7 ± 4.4 %ID/g
same,tissue uptake at 1 h,"0.03 nmol, uptake in Adrenals",4.6 ± 5.6 %ID/g
same,tissue uptake at 0.05 h,"0.03 nmol, uptake in Kidney",19.2 ± 8.4 %ID/g
same,tissue uptake at 10 min,"0.03 nmol, uptake in Kidney",16 ± 4.1 %ID/g
same,tissue uptake at 0.5 h,"0.03 nmol, uptake in Kidney",14 ± 4.1 %ID/g
same,tissue uptake at 1 h,"0.03 nmol, uptake in Kidney",12.3 ± 3.7 %ID/g
same,tissue uptake at 0.05 h,"0.03 nmol, uptake in Muscles",1.2 ± 0.7 %ID/g
same,tissue uptake at 10 min,"0.03 nmol, uptake in Muscles",0.9 ± 0.3 %ID/g
same,tissue uptake at 0.5 h,"0.03 nmol, uptake in Muscles",0.3 ± 0.1 %ID/g
same,tissue uptake at 1 h,"0.03 nmol, uptake in Muscles",0.07 %ID/g
same,tissue uptake at 0.05 h,"0.03 nmol, uptake in Pancreas",6 ± 1.5 %ID/g
same,tissue uptake at 10 min,"0.03 nmol, uptake in Pancreas",1.6 ± 1.4 %ID/g
same,tissue uptake at 0.5 h,"0.03 nmol, uptake in Pancreas",4.7 ± 2.7 %ID/g
same,tissue uptake at 1 h,"0.03 nmol, uptake in Pancreas",9.2 ± 1.9 %ID/g
same,tissue uptake at 0.05 h,"0.03 nmol, uptake in Pituitary",1 ± 1.7 %ID/g
same,tissue uptake at 10 min,"0.03 nmol, uptake in Pituitary",0.2 ± 0.2 %ID/g
same,tissue uptake at 0.5 h,"0.03 nmol, uptake in Pituitary",0.5 ± 0.8 %ID/g
same,tissue uptake at 1 h,"0.03 nmol, uptake in Pituitary",< 0.05 %ID/g
same,tissue uptake at 0.05 h,"0.03 nmol, uptake in Plasma",13.3 ± 1.6 %ID/g
same,tissue uptake at 0.5 h,"0.03 nmol, uptake in Plasma",3.2 ± 1 %ID/g
same,tissue uptake at 1 h,"0.03 nmol, uptake in Plasma",0.8 ± 0.1 %ID/g
same,tissue uptake at 0.05 h,[1],3.5 ± 2.5 %ID/g
same,tissue uptake at 0.5 h,[1],0.6 ± 0.2 %ID/g
same,tissue uptake at 1 h,[1],0.3 ± 0.08 %ID/g
same,tissue uptake at 0.05 h,"0.03 nmol, uptake in Stomach",5.6 ± 0.7 %ID/g
same,tissue uptake at 10 min,"0.03 nmol, uptake in Stomach",7.9 ± 2.2 %ID/g
same,tissue uptake at 0.5 h,"0.03 nmol, uptake in Stomach",8.1 ± 1.3 %ID/g
same,tissue uptake at 1 h,"0.03 nmol, uptake in Stomach",7.6 ± 1.1 %ID/g
same,tissue uptake at 0.05 h,"0.03 nmol, uptake in Tumor",6.9 ± 3.6 %ID/g
same,tissue uptake at 10 min,"0.03 nmol, uptake in Tumor",10.7 ± 2.5 %ID/g
same,tissue uptake at 0.5 h,"0.03 nmol, uptake in Tumor",15.1 ± 7.5 %ID/g
same,tissue uptake at 1 h,"0.03 nmol, uptake in Tumor",12.8 ± 6.7 %ID/g
same,tissue uptake at 1 h,"0.1 nmol, uptake in Adrenals",1.3 ± 0.2 %ID/g
same,tissue uptake at 0.05 h,"0.1 nmol, uptake in Kidney",21.6 ± 3.9 %ID/g
same,tissue uptake at 10 min,"0.1 nmol, uptake in Kidney",15.6 ± 3.1 %ID/g
same,tissue uptake at 0.5 h,"0.1 nmol, uptake in Kidney",16.1 ± 5.5 %ID/g
same,tissue uptake at 1 h,"0.1 nmol, uptake in Kidney",16.7 ± 8.6 %ID/g
same,tissue uptake at 0.05 h,"0.1 nmol, uptake in Muscles",1.5 ± 0.6 %ID/g
same,tissue uptake at 10 min,"0.1 nmol, uptake in Muscles",0.7 ± 0.2 %ID/g
same,tissue uptake at 0.5 h,"0.1 nmol, uptake in Muscles",0.4 ± 0.4 %ID/g
same,tissue uptake at 1 h,"0.1 nmol, uptake in Muscles",0.3 ± 0.4 %ID/g
same,tissue uptake at 0.05 h,"0.1 nmol, uptake in Pancreas",11.9 ± 4 %ID/g
same,tissue uptake at 10 min,"0.1 nmol, uptake in Pancreas",9.9 ± 4.2 %ID/g
same,tissue uptake at 0.5 h,"0.1 nmol, uptake in Pancreas",7 ± 1.4 %ID/g
same,tissue uptake at 1 h,"0.1 nmol, uptake in Pancreas",4.7 ± 0.5 %ID/g
same,tissue uptake at 0.05 h,"0.1 nmol, uptake in Pituitary",0.3 ± 0.2 %ID/g
same,tissue uptake at 10 min,"0.1 nmol, uptake in Pituitary",0.2 ± 0.09 %ID/g
same,tissue uptake at 0.5 h,"0.1 nmol, uptake in Pituitary",0.1 ± 0.2 %ID/g
same,tissue uptake at 1 h,"0.1 nmol, uptake in Pituitary",< 0.05 %ID/g
same,tissue uptake at 0.05 h,"0.1 nmol, uptake in Plasma",13.2 ± 1.7 %ID/g
same,tissue uptake at 10 min,"0.1 nmol, uptake in Plasma",8.6 ± 1.4 %ID/g
same,tissue uptake at 0.5 h,"0.1 nmol, uptake in Plasma",3.4 ± 1.7 %ID/g
same,tissue uptake at 1 h,"0.1 nmol, uptake in Plasma",1 ± 0.6 %ID/g
same,tissue uptake at 0.05 h,[2],5.2 ± 0.7 %ID/g
same,tissue uptake at 0.5 h,[2],0.8 ± 0.4 %ID/g
same,tissue uptake at 1 h,[2],0.2 ± 0.1 %ID/g
same,tissue uptake at 0.05 h,"0.1 nmol, uptake in Stomach",4.4 ± 1.1 %ID/g
same,tissue uptake at 10 min,"0.1 nmol, uptake in Stomach",5.2 ± 1.1 %ID/g
same,tissue uptake at 0.5 h,"0.1 nmol, uptake in Stomach",6.3 ± 2 %ID/g
same,tissue uptake at 1 h,"0.1 nmol, uptake in Stomach",6 ± 1.8 %ID/g
same,tissue uptake at 10 min,"0.1 nmol, uptake in Tumor",11.8 ± 3.6 %ID/g
same,tissue uptake at 1 h,"0.1 nmol, uptake in Tumor",9.9 ± 2.6 %ID/g
same,tissue uptake at 0.05 h,"0.3 nmol, uptake in Adrenals",2.3 ± 0.6 %ID/g
same,tissue uptake at 10 min,"0.3 nmol, uptake in Adrenals",1.2 ± 0.4 %ID/g
same,tissue uptake at 0.5 h,"0.3 nmol, uptake in Adrenals",1 ± 0.1 %ID/g
same,tissue uptake at 1 h,"0.3 nmol, uptake in Adrenals",0.8 ± 0.3 %ID/g
same,tissue uptake at 0.05 h,"0.3 nmol, uptake in Kidney",17.2 ± 5.4 %ID/g
same,tissue uptake at 10 min,"0.3 nmol, uptake in Kidney",12.8 ± 2.2 %ID/g
same,tissue uptake at 0.5 h,"0.3 nmol, uptake in Kidney",16.9 ± 6.3 %ID/g
same,tissue uptake at 1 h,"0.3 nmol, uptake in Kidney",13.4 ± 2.8 %ID/g
same,tissue uptake at 0.05 h,"0.3 nmol, uptake in Muscles",1.1 ± 0.1 %ID/g
same,tissue uptake at 10 min,"0.3 nmol, uptake in Muscles",0.5 ± 0.1 %ID/g
same,tissue uptake at 0.5 h,"0.3 nmol, uptake in Muscles",0.3 ± 0.1 %ID/g
same,tissue uptake at 1 h,"0.3 nmol, uptake in Muscles",< 0.05 %ID/g
same,tissue uptake at 10 min,"0.3 nmol, uptake in Pancreas",3.5 ± 0.3 %ID/g
same,tissue uptake at 0.5 h,"0.3 nmol, uptake in Pancreas",3.2 ± 0.4 %ID/g
same,tissue uptake at 1 h,"0.3 nmol, uptake in Pancreas",3 ± 1 %ID/g
